Measured values published in patent US20240368565A1, “COMPLEMENTATION-BASED TAGS AND REPORTERS FOR DUAL-MODALITY LABELING” (Promega Corporation, priority 2023, published 2024).

Key:
DualTag peptide = assay: Dissociation kinetics after complementation with synthetic peptide (dilution, luminescence); conditions: 100 nM protein, 200 nM peptide, diluted to 1 pM, furimazine
Method: After preincubation with peptide, samples were diluted to 1 pM in either buffer alone or buffer 100 nM Tag peptide. At various time points, samples were transferred into luminescent substrate (Furimazine) to monitor dissociation of the complex.

[1] = Labeling kinetics of LgHT-LgBiT variants with TMR HaloTag ligand in E. coli lysates (fluorescence polarization); format: biochemical; conditions: 200 micromolar HaloTag[3-19] synthetic peptide, 10 nM TMR HaloTag ligand, versus M2F control
[2] = Labeling kinetics with various HaloTag ligands (fluorescence polarization); format: biochemical; conditions: proteins at 10 nM, ligand at 2.5 nM, Tris-buffered saline+0.01% CHAPS
Method: (§1) FIG. 132. Labeling kinetics of HaloTag7 and HaloTag[22-297](M2F+D53G+K140E)-12×Gly/Ser-LgBiT-3×Gly/Ser-6×His with HaloTag ligand JF549. Fluorescence polarization was monitored over time to observe labeling kinetics of JF549 HaloTag ligand by HaloTag standard protein or HaloTag[22-297](M2F+D53G+K140E)-12×Gly/Ser-LgBiT-3×Gly/Ser-6×His. The experiment was completed in Tris-buffered saline+0.01% CHAPS with proteins at 10 nM and ligand at 2.5 nM.
as §1, with “133.” for “132.”, “JF503.” for “JF549.”, “JF503” for “JF549”
as §1, with “134.” for “132.”, “JFX554.” for “JF549.”, “JFX554” for “JF549”
as §1, with “135.” for “132.”, “Oregon Green.” for “JF549.”, “Oregon Green” for “JF549”
FIG. 136. Labeling kinetics of HaloTag7 and HaloTag[22-297](M2F+D53G+K140E)-12×Gly/Ser-LgBiT-3×Gly/Ser-6×His with a FAM HaloTag ligand. Fluorescence polarization was monitored over time to observe labeling kinetics of FAM HaloTag ligand by HaloTag standard protein or HaloTag[22-297](M2F+D53G+K140E)-12×Gly/Ser-LgBiT-3×Gly/Ser-6×His. The experiment was completed in Tris-buffered saline+0.01% CHAPS with proteins at 10 nM and ligand at 2.5 nM.

[3] = tested on: synthetic HaloTag[3-19] peptide; assay: Stabilization of activity of LgHT-LgBiT variants by synthetic peptides in E. coli lysates; format: biochemical; conditions: 10 micromolar or more synthetic peptide, 10 minutes at temperature, 50 nM JF646 HaloTag ligand
[4] = 10 nM protein, 125 micromolar HaloTag[3-19] synthetic peptide, 10 minutes, 2.5 nM TMR HaloTag ligand

B1: LgBiT: polypeptide component of a bioluminescent complex (β1-9-like polypeptide) (protein)
chain: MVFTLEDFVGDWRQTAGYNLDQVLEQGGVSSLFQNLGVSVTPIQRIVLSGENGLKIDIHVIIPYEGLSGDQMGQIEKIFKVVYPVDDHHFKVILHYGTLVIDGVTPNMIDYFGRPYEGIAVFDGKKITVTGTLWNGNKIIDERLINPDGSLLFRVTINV
DualTag peptide
  Dissociation from the DualTag peptide: faster dissociation

B2: M2F+D53G+V177E: reporter variant of FIG. 53 (protein)
chain: MFHYVDVGPRDGTPVLFLHGNPTSSYVWRNIIPHVAPTHRCIAPDLIGMGKSGKPDLGYFFDDHVRFMDAFIEALGLEEVVLVIHDWGSALGFHWAKRNPERVKGIAFMEFIRPIPTWDEWPEFARETFQAFRTTDVGRKLIIDQNVFIEGTLPMGVVRPLTEVEMDHYREPFLNPEDREPLWRFPNELPIAGEPANIVALVEEYMDWLHQSPVPKLLFWGTPGVLIPPAEAARLAKSLPNCKAVDIGPGLNLLQEDNPDLIGSEIARWLSTLEISGGSGGSGGGGSGGMVFTLEDFVGDWEQTAAYNLDQVLEQGGVSSLLQNLAVSVTPIQRIVRSGENALKIDIHVIIPYEGLSADQMAQIEEVFKVVYPVDDHHFKVILPYGTLVIDGVTPNMLNYFGRPYEGIAVFDGKKITVTGTLWNGNKIIDERLITPDGSMLFRVTINSGSGHHHHHH
[1]
  Labeling with TMR HaloTag ligand, response to synthetic peptide complementation: faster ligand binding and labeling

B3: M2F+K140E: reporter variant of FIG. 54 and 58 (protein)
chain: MFHYVDVGPRDGTPVLFLHGNPTSSYVWRNIIPHVAPTHRCIAPDLIGMGKSDKPDLGYFFDDHVRFMDAFIEALGLEEVVLVIHDWGSALGFHWAKRNPERVKGIAFMEFIRPIPTWDEWPEFARETFQAFRTTDVGRELIIDQNVFIEGTLPMGVVRPLTEVEMDHYREPFLNPVDREPLWRFPNELPIAGEPANIVALVEEYMDWLHQSPVPKLLFWGTPGVLIPPAEAARLAKSLPNCKAVDIGPGLNLLQEDNPDLIGSEIARWLSTLEISGGSGGSGGGGSGGMVFTLEDFVGDWEQTAAYNLDQVLEQGGVSSLLQNLAVSVTPIQRIVRSGENALKIDIHVIIPYEGLSADQMAQIEEVFKVVYPVDDHHFKVILPYGTLVIDGVTPNMLNYFGRPYEGIAVFDGKKITVTGTLWNGNKIIDERLITPDGSMLFRVTINSGSGHHHHHH
[1]
  Labeling with TMR HaloTag ligand, response to synthetic peptide complementation: better fold response to complementation with the peptide

B4: M2F+D53G+K140E: triple mutant reporter, best candidate protein (protein)
chain: MFHYVDVGPRDGTPVLFLHGNPTSSYVWRNIIPHVAPTHRCIAPDLIGMGKSGKPDLGYFFDDHVRFMDAFIEALGLEEVVLVIHDWGSALGFHWAKRNPERVKGIAFMEFIRPIPTWDEWPEFARETFQAFRTTDVGRELIIDQNVFIEGTLPMGVVRPLTEVEMDHYREPFLNPVDREPLWRFPNELPIAGEPANIVALVEEYMDWLHQSPVPKLLFWGTPGVLIPPAEAARLAKSLPNCKAVDIGPGLNLLQEDNPDLIGSEIARWLSTLEISGGSGGSGGGGSGGMVFTLEDFVGDWEQTAAYNLDQVLEQGGVSSLLQNLAVSVTPIQRIVRSGENALKIDIHVIIPYEGLSADQMAQIEEVFKVVYPVDDHHFKVILPYGTLVIDGVTPNMLNYFGRPYEGIAVFDGKKITVTGTLWNGNKIIDERLITPDGSMLFRVTINSGSGHHHHHH
[2]
  Function with FAM HaloTag ligand: functional
  Function with JF503 HaloTag ligand: functional
  Function with JF549 HaloTag ligand: functional
  Function with JFX554 HaloTag ligand: functional
  Function with Oregon Green HaloTag ligand: functional
[1]
  Labeling with TMR HaloTag ligand, response to synthetic peptide complementation: best dynamic range of all combinations tested

B5: D53G+V177E: reporter variant of FIG. 50 (protein)
chain: MFHYVDVGPRDGTPVLFLHGNPTSSYVWRNIIPHVAPTHRCIAPDLIGMGKSGKPDLGYFFDDHVRFMDAFIEALGLEEVVLVIHDWGSALGFHWAKRNPERVKGIAFMEFIRPIPTWDEWPEFARETFQAFRTTDVGRKLIIDQNVFIEGTLPMGVVRPLTEVEMDHYREPFLNPEDREPLWRFPNELPIAGEPANIVALVEEYMDWLHQSPVPKLLFWGTPGVLIPPAEAARLAKSLPNCKAVDIGPGLNLLQEDNPDLIGSEIARWLSTLEISGGSGGSGGGGSGGMVFTLEDFVGDWEQTAAYNLDQVLEQGGVSSLLQNLAVSVTPIQRIVRSGENALKIDIHVIIPYEGLSADQMAQIEEVFKVVYPVDDHHFKVILPYGTLVIDGVTPNMLNYFGRPYEGIAVFDGKKITVTGTLWNGNKIIDERLITPDGSMLFRVTINS
[3]
  Optimal temperature of peptide stabilization versus the non-peptide condition: ~35 °C

B6: M49F+S89A: reporter variant of FIG. 51 (protein)
chain: MFHYVDVGPRDGTPVLFLHGNPTSSYVWRNIIPHVAPTHRCIAPDLIGFGKSDKPDLGYFFDDHVRFMDAFIEALGLEEVVLVIHDWGAALGFHWAKRNPERVKGIAFMEFIRPIPTWDEWPEFARETFQAFRTTDVGRKLIIDQNVFIEGTLPMGVVRPLTEVEMDHYREPFLNPVDREPLWRFPNELPIAGEPANIVALVEEYMDWLHQSPVPKLLFWGTPGVLIPPAEAARLAKSLPNCKAVDIGPGLNLLQEDNPDLIGSEIARWLSTLEISGGSGGSGGGGSGGMVFTLEDFVGDWEQTAAYNLDQVLEQGGVSSLLQNLAVSVTPIQRIVRSGENALKIDIHVIIPYEGLSADQMAQIEEVFKVVYPVDDHHFKVILPYGTLVIDGVTPNMLNYFGRPYEGIAVFDGKKITVTGTLWNGNKIIDERLITPDGSMLFRVTINS
[3]
  Optimal temperature of peptide stabilization versus the non-peptide condition: ~35 °C

B7: M49F+L57I: reporter variant of FIG. 52 (protein)
chain: MFHYVDVGPRDGTPVLFLHGNPTSSYVWRNIIPHVAPTHRCIAPDLIGFGKSDKPDIGYFFDDHVRFMDAFIEALGLEEVVLVIHDWGSALGFHWAKRNPERVKGIAFMEFIRPIPTWDEWPEFARETFQAFRTTDVGRKLIIDQNVFIEGTLPMGVVRPLTEVEMDHYREPFLNPVDREPLWRFPNELPIAGEPANIVALVEEYMDWLHQSPVPKLLFWGTPGVLIPPAEAARLAKSLPNCKAVDIGPGLNLLQEDNPDLIGSEIARWLSTLEISGGSGGSGGGGSGGMVFTLEDFVGDWEQTAAYNLDQVLEQGGVSSLLQNLAVSVTPIQRIVRSGENALKIDIHVIIPYEGLSADQMAQIEEVFKVVYPVDDHHFKVILPYGTLVIDGVTPNMLNYFGRPYEGIAVFDGKKITVTGTLWNGNKIIDERLITPDGSMLFRVTINS
[3]
  Optimal temperature of peptide stabilization versus the non-peptide condition: ~40 °C

B8: M2F+D53S+V177E: more highly stabilized purified reporter variant of FIG. 60 (protein)
chain: MFHYVDVGPRDGTPVLFLHGNPTSSYVWRNIIPHVAPTHRCIAPDLIGMGKSSKPDLGYFFDDHVRFMDAFIEALGLEEVVLVIHDWGSALGFHWAKRNPERVKGIAFMEFIRPIPTWDEWPEFARETFQAFRTTDVGRKLIIDQNVFIEGTLPMGVVRPLTEVEMDHYREPFLNPEDREPLWRFPNELPIAGEPANIVALVEEYMDWLHQSPVPKLLFWGTPGVLIPPAEAARLAKSLPNCKAVDIGPGLNLLQEDNPDLIGSEIARWLSTLEISGGSGGSGGGGSGGMVFTLEDFVGDWEQTAAYNLDQVLEQGGVSSLLQNLAVSVTPIQRIVRSGENALKIDIHVIIPYEGLSADQMAQIEEVFKVVYPVDDHHFKVILPYGTLVIDGVTPNMLNYFGRPYEGIAVFDGKKITVTGTLWNGNKIIDERLITPDGSMLFRVTINS
[4]
  Loss of activity at 37° C. temperature challenge: loses less than half of its activity
